Assay results as given in article PMC10618305, “An intramolecular disulphide bond in human 4E-T affects its binding to eIF4E1a protein” (European Biophysics Journal, 2023).
Changes are numbered by the printed parent chain. In names and notes the source's numbering stands. Bridge positions count the residues as written; N and C are the ends.

How the values were obtained:
[1] = target: human eIF4E1a protein (human) (UniProt P06730); experiment: differential scanning fluorimetry (thermal shift); non-reducing: 50 mM HEPES-KOH pH 7.2, 100 mM KCl, no TCEP; 5 µM eIF4E1a with 0-50 µM h4E-T(1-68) variant incubated without TCEP (up to 48 h, 4 or 20 °C), or SEC-purified dimers at 1:1; SYPRO Orange; shift of the Tm of eIF4E1a
[2] = target: human 4E-T(1-68) wild type, monomer SH (both cysteines reduced) (human) (UniProt Q9NRA8); experiment: SEC; non-reducing: monomer fractions incubated 24 h at 20 °C in TCEP-free 50 mM HEPES-KOH pH 7.2 with KCl, Enrich SEC70 column, 20 °C; dimers are held by intermolecular disulphide bonds
human eIF4E1a protein [3] = target: T1, human eIF4E1a protein (human, UniProt P06730 1-217); experiment: differential scanning fluorimetry (thermal shift); non-reducing: 50 mM HEPES-KOH pH 7.2, 100 mM KCl, no TCEP; 5 µM eIF4E1a with 0-50 µM h4E-T(1-68) variant incubated without TCEP (up to 48 h, 4 or 20 °C), or SEC-purified dimers at 1:1; SYPRO Orange; shift of the Tm of eIF4E1a; details: both partners purified
T1 construct: human eukaryotic translation initiation factor 4E, isoform called eIF4E1a; Extinction coefficient used: 52,940 M^-1 cm^-1; also called heIF4E1a; eukaryotic initiation factor 4E
T1 sequence (P06730 whole entry, canonical isoform): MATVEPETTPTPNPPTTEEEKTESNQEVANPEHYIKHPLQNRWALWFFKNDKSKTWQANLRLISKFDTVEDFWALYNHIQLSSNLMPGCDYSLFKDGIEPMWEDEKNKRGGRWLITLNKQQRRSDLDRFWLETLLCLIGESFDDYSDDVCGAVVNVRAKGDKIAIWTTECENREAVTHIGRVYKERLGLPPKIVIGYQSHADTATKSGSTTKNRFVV

human eIF4E1a protein [4] = target: T1, human eIF4E1a protein; experiment: ITC; non-reducing: 50 mM HEPES-KOH pH 7.2, 100 mM KCl, no TCEP, 20 °C; 20 µM eIF4E1a in the cell titrated with 200 µM h4E-T(1-68) WT; one-site model; details: both partners purified
human eIF4E1a protein [5] = target: T1, human eIF4E1a protein; experiment: differential scanning fluorimetry (thermal shift); non-reducing: 50 mM HEPES-KOH pH 7.2, 100 mM KCl, no TCEP; 5 µM eIF4E1a with 0-50 µM h4E-T(1-68) variant incubated without TCEP (up to 48 h, 4 or 20 °C), or SEC-purified dimers at 1:1; SYPRO Orange; shift of the Tm of eIF4E1a; details: both partners purified; remark: listed apart in the source
human eIF4E1a protein [6] = target: T1, human eIF4E1a protein; experiment: ITC; reducing: 50 mM HEPES-KOH pH 7.2, 100 mM KCl, 1 mM TCEP, 20 °C; 5 or 10 µM eIF4E1a in the cell titrated with ten-fold concentrated h4E-T(1-68) variant; one-site model; details: both partners purified
human eIF4E1a protein [7] = target: T1, human eIF4E1a protein; experiment: differential scanning fluorimetry (thermal shift); reducing: 50 mM HEPES-KOH pH 7.2, 100 mM KCl, 1 mM TCEP; 5 µM eIF4E1a with 0-50 µM h4E-T(1-68) variant; SYPRO Orange; shift of the Tm of eIF4E1a; details: both partners purified
human eIF4E1a protein [8] = target: T1, human eIF4E1a protein; experiment: as above; details: both partners purified; remark: listed apart in the source
human eIF4E1a protein [9] = target: T2, human eIF4E1a protein (human, UniProt P06730 1-217); experiment: ITC; eIF4E1a (5 or 10 uM) in the cell, titrated with a ten-fold concentrated h4E-T(1-68) variant; 20 °C; 50 mM HEPES-KOH pH 7.2, 100 mM KCl, with 1 mM TCEP (reducing); one-site model; details: both partners purified
T2 construct: eukaryotic translation initiation factor 4E, isoform 1a (eIF4E1a), human; Extinction coefficient used: 52,940 M^-1 cm^-1; also called heIF4E1a; eukaryotic initiation factor 4E
T2 sequence (P06730 whole entry, canonical isoform): as above

human eIF4E1a protein [10] = target: T2, human eIF4E1a protein; experiment: ITC; eIF4E1a in the cell, titrated with a ten-fold concentrated h4E-T(1-68) variant (for WT: 20 uM eIF4E1a, 200 uM h4E-T); 20 °C; 50 mM HEPES-KOH pH 7.2, 100 mM KCl, without TCEP (non-reducing); one-site model; details: both partners purified
[11] = target: the molecule itself; experiment: SEC; non-reducing: monomer fractions incubated 24 h at 20 °C in TCEP-free 50 mM HEPES-KOH pH 7.2 with KCl, Enrich SEC70 column, 20 °C; dimers are held by intermolecular disulphide bonds

Chain of human eIF4E1a protein (human) (P06730 whole entry): as the sequence (P06730 whole entry, canonical isoform) above

With “dimeric form of human 4E-T(1-68) C26A (intermolecular disulphide bond) (from UniProt Q9NRA8 1-68) (complex)” the fold lower ΔTm than the corresponding monomer [1] was 2 fold, the ΔTm lower than that of the monomer-dimer mixture [1] was 2.5 °C and the ΔΔTm against the monomer SS of WT h4E-T(1-68), 1:1 mixture [1] was 5.5 °C.

“dimeric form of human 4E-T(1-68) C50A (intermolecular disulphide bond) (from UniProt Q9NRA8 1-68) (complex)” showed a fold lower ΔTm than the corresponding monomer [1] of 2 fold, a ΔTm lower than that of the monomer-dimer mixture [1] of 2.5 °C and a ΔΔTm against the monomer SS of WT h4E-T(1-68), 1:1 mixture [1] of 7 °C.

“human 4E-T(1-68) wild type, monomer SH (both cysteines reduced) (from UniProt Q9NRA8 1-68) (domain or fragment)” gave a percent in the dimeric form [2] of 10% and a stoichiometry N [2] of 2.

B1: human 4E-T(1-68) wild type with the intramolecular disulphide bond Cys26-Cys50 (monomer SS) (domain or fragment, UniProt Q9NRA8 1-68, looked up)
chain: MDRRSMGETESGDAFLDLKKPPASKCPHRYTKEELLDIKELPHSKQRPSCLSEKYDSDGVWDPEKWHA
modifications: disulfide 26-50
notes: human 4E-Transporter (4E-T), N-terminal fragment, residues 1-68; Same construct as m2, oxidised; The samples without TCEP may still hold some monomer SH and a small fraction of dimer; also called h4E-T(1-68) WT under non-reducing conditions; disulphide loop form
In the case of B1, the “Tm of eIF4E in the 1:1 mixture (melting peak after 3 h at 20 °C without TCEP)” value (human eIF4E1a protein [3]) is reported as 41.5 ± 0.5 °C, the Kd (human eIF4E1a protein [4]) is reported as 800 ± 96 nM and the “ΔTm of eIF4E at eIF4E:h4E-T(1-68) 1:1” value (human eIF4E1a protein [5]) is reported as 1 ± 0.5 °C. For the same molecule, the “ΔTm of eIF4E at eIF4E:h4E-T(1-68) 1:10” value (human eIF4E1a protein [5]) was 9.5 ± 0.5 °C.

B2: human 4E-T(1-68) wild type, monomer SH (both cysteines reduced) (domain or fragment, UniProt Q9NRA8 1-68, looked up)
chain: B1 chain
notes: pET28a construct, His6-tag cleavable by thrombin; also called h4E-T(1-68) WT; h4ET(1-68)
For B2, the “Tm of eIF4E in the 1:1 mixture (melting peak after 3 h at 20 °C without TCEP)” value (human eIF4E1a protein [3]) was 51.5 ± 0.5 °C, the Kd (human eIF4E1a protein [6]) was 2.7 ± 0.5 nM and the “ΔTm of eIF4E at eIF4E:h4E-T(1-68) 1:1” value (human eIF4E1a protein [7]) was 12 ± 0.5 °C. For the same molecule, the “ΔTm of eIF4E at eIF4E:h4E-T(1-68) 1:10” value (human eIF4E1a protein [7]) was 15.5 ± 0.5 °C and the “Tm of eIF4E in the 1:1 mixture (zero time)” value (human eIF4E1a protein [8]) was 52.5 ± 0.5 °C.

B3: human 4E-T(1-68) wild type, reduced (monomer SH) (domain or fragment, UniProt Q9NRA8 1-68, looked up)
chain: B1 chain
notes: 4E-Transporter (4E-T), human, residues 1-68; The His6-tag is cleavable by thrombin, but no cleavage is described; Kept in 1 mM TCEP, with both cysteines reduced; also called h4E-T(1-68) WT; h4ET(1-68)
B3 gave a Ka (human eIF4E1a protein [9]) of 3.73e+08 ± 6.8e+07 M⁻¹.

B4: human 4E-T(1-68) wild type under non-reducing conditions (monomer SS, intramolecular disulphide bond) (domain or fragment, UniProt Q9NRA8 1-68, looked up)
chain: B1 chain
modifications: disulfide 26-50
notes: 4E-Transporter (4E-T), human, residues 1-68; Same construct as Wm2, in TCEP-free buffer; also called h4E-T(1-68) WT without TCEP; disulphide loop form
B4 gave a Ka (human eIF4E1a protein [10]) of 1.25e+06 ± 150000 M⁻¹.

B5: human 4E-T(1-68) C26A (domain or fragment, UniProt Q9NRA8 1-68, looked up)
chain: B1 chain with C26A
notes: 4E-Transporter (4E-T), human, residues 1-68, with C26A; also called h4E-T(1-68)C26A; C26A mutant
B5 showed a Ka (human eIF4E1a protein [9]) of 6.64e+08 ± 8.4e+07 M⁻¹ and a Ka (human eIF4E1a protein [10]) of ~1e+08 M⁻¹.

B6: human 4E-T(1-68) C26AC50A (domain or fragment, UniProt Q9NRA8 1-68, looked up)
chain: B1 chain with C26A, C50A
notes: 4E-Transporter (4E-T), human, residues 1-68, with C26A and C50A; This mutant cannot form any disulphide bond; also called h4E-T(1-68)C26AC50A; double cysteine mutant
B6 gave a Ka (human eIF4E1a protein [10]) of 3.27e+08 ± 2.2e+07 M⁻¹.

B7: human 4E-T(1-68) C26A (domain or fragment, UniProt Q9NRA8 1-68, looked up)
chain: B1 chain with C26A
notes: human 4E-Transporter (4E-T), N-terminal fragment, residues 1-68; Without TCEP the samples are a mixture of monomer and disulphide-linked dimer; also called C26A mutant; C26 mutant
For B7, the “ΔTm of eIF4E at eIF4E:h4E-T(1-68) 1:1” value (human eIF4E1a protein [5]) was 9 ± 0.5 °C, the “ΔTm of eIF4E at eIF4E:h4E-T(1-68) 1:10” value (human eIF4E1a protein [5]) was 12.5 ± 0.5 °C and the “stoichiometry N” value [11] was 2. The Kd (human eIF4E1a protein [6]) was 1.5 ± 0.5 nM, the “ΔTm of eIF4E at eIF4E:h4E-T(1-68) 1:1” value (human eIF4E1a protein [7]) was 12 ± 0.5 °C and the “ΔTm of eIF4E at eIF4E:h4E-T(1-68) 1:10” value (human eIF4E1a protein [7]) was 15.5 ± 0.5 °C.

B8: human 4E-T(1-68) C50A (domain or fragment, UniProt Q9NRA8 1-68, looked up)
chain: B1 chain with C50A
notes: human 4E-Transporter (4E-T), N-terminal fragment, residues 1-68; Without TCEP the samples are a mixture of monomer and disulphide-linked dimer; also called C50A mutant
B8 was tested, and the “ΔTm of eIF4E at eIF4E:h4E-T(1-68) 1:1” value (human eIF4E1a protein [5]) was 10.5 ± 0.5 °C, the “ΔTm of eIF4E at eIF4E:h4E-T(1-68) 1:10” value (human eIF4E1a protein [5]) was 14.5 ± 0.5 °C and the “stoichiometry N” value [11] was 2. The “ΔTm of eIF4E at eIF4E:h4E-T(1-68) 1:1” value (human eIF4E1a protein [7]) was 11.5 ± 0.5 °C, the “ΔTm of eIF4E at eIF4E:h4E-T(1-68) 1:10” value (human eIF4E1a protein [7]) was 15.5 ± 0.5 °C and the “ΔTm of eIF4E at eIF4E:h4E-T(1-68) 1:1” value (human eIF4E1a protein [8]) was 12 ± 0.5 °C.

B9: human 4E-T(1-68) C26AC50A (domain or fragment, UniProt Q9NRA8 1-68, looked up)
chain: B1 chain with C26A, C50A
notes: human 4E-Transporter (4E-T), N-terminal fragment, residues 1-68; also called double cysteine mutant
In the case of B9, the “ΔTm of eIF4E at eIF4E:h4E-T(1-68) 1:1” value (human eIF4E1a protein [5]) is reported as 10.5 ± 0.5 °C, the “ΔTm of eIF4E at eIF4E:h4E-T(1-68) 1:10” value (human eIF4E1a protein [5]) is reported as 14.5 ± 0.5 °C and the Kd (human eIF4E1a protein [6]) is reported as 3.1 ± 0.2 nM.
